Data on 6 variants can be found in article PMC10875708 (2024).

To fix the notation:
B1: Stearoyl-CoA desaturase (SCD1) [human (endogenous in HCT116)] / Sulfotransferase family 2B member 1 (SULT2B1) [human (endogenous in HCT116)] (parent complex)
chain 1: MPAHLLQDDISSSYTTTTTITAPPSRVLQNGGDKLETMPLYLEDDIRPDIKDDIYDPTYKDKEGPSPKVEYVWRNIILMSLLHLGALYGITLIPTCKFYTWLWGVFYYFVSALGITAGAHRLWSHRSYKARLPLRLFLIIANTMAFQNDVYEWARDHRAHHKFSETHADPHNSRRGFFFSHVGWLLVRKHPAVKEKGSTLDLSDLEAEKLVMFQRRYYKPGLLMMCFILPTLVPWYFWGETFQNSVFVATFLRYAVVLNATWLVNSAAHLFGYRPYDKNISPRENILVSLGAVGEGFHNYHHSFPYDYSASEYRWHINFTTFFIDCMAALGLAYDRKKVSKAAILARIKRTGDGNYKSG
chain 2: MDGPAEPQIPGLWDTYEDDISEISQKLPGEYFRYKGVPFPVGLYSLESISLAENTQDVRDDDIFIITYPKSGTTWMIEIICLILKEGDPSWIRSVPIWERAPWCETIVGAFSLPDQYSPRLMSSHLPIQIFTKAFFSSKAKVIYMGRNPRDVVVSLYHYSKIAGQLKDPGTPDQFLRDFLKGEVQFGSWFDHIKGWLRMKGKDNFLFITYEELQQDLQGSVERICGFLGRPLGKEALGSVVAHSTFSAMKANTMSNYTLLPPSLLDHRRGAFLRKGVCGDWKNHFTVAQSEAFDRAYRKQMRGMPTFPWDEDPEEDGSPDPEPSPEPEPKPSLEPNTSLEREPRPNSSPSPSPGQASETPHPRPS

The variants in the test derive from B1. As to the kind of experiment: co-IP (IP: SCD1, IB: SULT2B1), band quantification; HCT116 cells; parent: 1; read off a plot.
For chain 1 MPAHLLQDDISSSYTTTTTITAPPSRVLQNGGDKLETMPLYLEDDIRPDIKDDIYDPTYKDKEGPSPKVEYVWRNIILMSLLMLGALYGITLIPTCKFYTWLWGVFYYFVSALGITAGAHRLWSHRSYKARLPLRLFLIIANTMAFQNDVYEWARDHRAHHKFSETHADPHNSRRGFFFSHVGWLLVRKHPAVKEKGSTLDLSDLEAEKLVMFQRRYYKPGLLMMCFILPTLVPWYFWGETFQNSVFVATFLRYAVVLNATWLVNSAAHLFGYRPYDKNISPRENILVSLGAVGEGFHNYHHSFPYDYSASEYRWHINFTTFFIDCMAALGLAYDRKKVSKAAILARIKRTGDGNYKSG [chain 1 H83M], the ratio to parent is around 1.2.
Regarding chain 1 MPAHLLQDDISSSYTTTTTITAPPSRVLQNGGDKLETMPLYLEDDIRPDIKDDIYDPTYKDKEGPSPKVEYVWRNIILMRLLHLGALYGITLIPTCKFYTWLWGVFYYFVSALGITAGAHRLWSHRSYKARLPLRLFLIIANTMAFQNDVYEWARDHRAHHKFSETHADPHNSRRGFFFSHVGWLLVRKHPAVKEKGSTLDLSDLEAEKLVMFQRRYYKPGLLMMCFILPTLVPWYFWGETFQNSVFVATFLRYAVVLNATWLVNSAAHLFGYRPYDKNISPRENILVSLGAVGEGFHNYHHSFPYDYSASEYRWHINFTTFFIDCMAALGLAYDRKKVSKAAILARIKRTGDGNYKSG [chain 1 S80R], the ratio to parent was around 0.35.
On to chain 1 MPAHLLQDDISSSYTTTTTITAPPSRVLQNGGDKLETMPLYLEDDIRPDIKDDIYDPTYKDKEGPSPKVEYVWRNIILMELLHLGALYGITLIPTCKFYTWLWGVFYYFVSALGITAGAHRLWSHRSYKARLPLRLFLIIANTMAFQNDVYEWARDHRAHHKFSETHADPHNSRRGFFFSHVGWLLVRKHPAVKEKGSTLDLSDLEAEKLVMFQRRYYKPGLLMMCFILPTLVPWYFWGETFQNSVFVATFLRYAVVLNATWLVNSAAHLFGYRPYDKNISPRENILVSLGAVGEGFHNYHHSFPYDYSASEYRWHINFTTFFIDCMAALGLAYDRKKVSKAAILARIKRTGDGNYKSG [chain 1 S80E], for which the ratio to parent is around 0.5.
The same measure for chain 1 MPAHLLQDDISSSYTTTTTITAPPSRVLQNGGDKLETMPLYLEDDIRPDIKDDIYDPTYKDKEGPSPKVEYVWRNIILMFLLHLGALYGITLIPTCKFYTWLWGVFYYFVSALGITAGAHRLWSHRSYKARLPLRLFLIIANTMAFQNDVYEWARDHRAHHKFSETHADPHNSRRGFFFSHVGWLLVRKHPAVKEKGSTLDLSDLEAEKLVMFQRRYYKPGLLMMCFILPTLVPWYFWGETFQNSVFVATFLRYAVVLNATWLVNSAAHLFGYRPYDKNISPRENILVSLGAVGEGFHNYHHSFPYDYSASEYRWHINFTTFFIDCMAALGLAYDRKKVSKAAILARIKRTGDGNYKSG [chain 1 S80F]: around 0.4; for chain 1 MPAHLLQDDISSSYTTTTTITAPPSRVLQNGGDKLETMPLYLEDDIRPDIKDDIYDPTYKDKEGPSPKVEYVWRNIILMSLLHLGALYGITLIPTCKFYTWLWGVFYYFVSALGITAGAHRLWSHRSYKARLPLRLFLIIANTMAFQNDVYEWARDHRAHHKFSETHADPHNSRRGFAFSHVGWLLVRKHPAVKEKGSTLDLSDLEAEKLVMFQRRYYKPGLLMMCFILPTLVPWYFWGETFQNSVFVATFLRYAVVLNATWLVNSAAHLFGYRPYDKNISPRENILVSLGAVGEGFHNYHHSFPYDYSASEYRWHINFTTFFIDCMAALGLAYDRKKVSKAAILARIKRTGDGNYKSG [chain 1 F178A]: around 2.4.
The same measure for chain 1 MPAHLLQDDISSSYTTTTTITAPPSRVLQNGGDKLETMPLYLEDDIRPDIKDDIYDPTYKDKEGPSPKVEYVWRNIILMSLLHLGALYGITLIPTCKFYTWLWGVFYYFVSALGITAGAHRLWSHRSYKARLPLRLFLIIANTMAFQNDVYEWARDHRAHHKFSETHADPHNSRRGFGFSHVGWLLVRKHPAVKEKGSTLDLSDLEAEKLVMFQRRYYKPGLLMMCFILPTLVPWYFWGETFQNSVFVATFLRYAVVLNATWLVNSAAHLFGYRPYDKNISPRENILVSLGAVGEGFHNYHHSFPYDYSASEYRWHINFTTFFIDCMAALGLAYDRKKVSKAAILARIKRTGDGNYKSG [chain 1 F178G]: around 2.6.
